Earlier results as cited in PMC9381557.

Target: RAGE V domain (Homo sapiens) (UniProt Q15109)
UniProt Q15109, sequence (Q15109 23-116): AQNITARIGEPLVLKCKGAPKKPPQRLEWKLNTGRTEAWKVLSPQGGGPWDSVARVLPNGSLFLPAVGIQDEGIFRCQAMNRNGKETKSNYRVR

Kd: 6.8 µM
Substance: S100P (from UniProt P25815)
